Patent WO2021160116A1

Target: human FcRn mut (L320A, L321A) co-transfected with human β2M, stably overexpressed on HEK293 cells (human) (UniProt P55899)
Assay: flow cytometry competition, Argx-113 against biotin-hIgG (100 μg/mL) on HEK293 cells overexpressing human FcRn mut, pH 6.0

IC50: 9.77 nM
Substance: Argx-113
